The supplement of paper PMC7877785
± gives the uncertainty stated by the source.

Test: self-splicing fitness, log relative to wild type (ln ratio); higher = more splicing; Tetrahymena group I intron in knt gene, E. coli kanamycin selection, DiMSum; sequences stand for … in CUCUCU…GGAGGGAAAAGUUAUCAGGCAUGCACCUGGUAGCUAGUCUUUAAACCAAUAGAUUGCAUCGGUUUAAAAGGCAAGACCGUCAAAUUGCGGGAAAGGGGUCAACAGCCGUUCAGUACCAAGUCUCAGGGGAAACUUUGAGAUGGCCUUGCAAAGGGUAUGGUAAUAAGCUGACGGACAUGGUCCUAACCACGCAGCCAAGUCCUAAGUCAACAGAUCUUCUGUUGAUAUGGAUGCAGUUCACAGACUAAAUGUCGGUCGGGGAAGAUGUAUUCUUCUCAUAAGAUAUAGUCGGACCUCUCCUUAAUGGGAGCUAGCGGAUGAAGUGAUGCAACACUGGAGCCGCUGGGAACUAAUUUGUAUGCGAAAGUAUAUUGAUUAGUUUUGGAGUACUCGUGGUCG
Method in brief: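 Colonies from six replicate transformations of E. coli BL21(DE3) were pooled and amplicon-sequenced on an Illumina HiSeq 2500. The library placed an intron with all eight P1ex-region nucleotides randomised inside the knt kanamycin-resistance gene on pET-22b(+), and cells grew overnight at 37°C or 30°C on LB agar with or without 25 μg/mL kanamycin (plus 100 μg/mL carbenicillin, 50 μM IPTG, 0.2% rhamnose). Fitness is the DiMSum error-weighted combination of wild-type-normalised replicate fold changes, kanamycin versus none.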

Row | Sequence | self-splicing fitness (ln) (30 °C) | self-splicing fitness (ln) (37 °C)
1 | GGCUAGCAAUAUUACGUUUU | -0.476 ± 0.084 | -0.0101 ± 0.093
2 | GGGAAGCAAUAUUACGAGAU | -2.81 ± 0.25 | -2.8 ± 0.38
3 | GGGAAGCAAUAUUACGAGGA | -3.34 ± 0.48 | -2.24 ± 0.29
4 | GGGAAGCAAUAUUACGAUCU | -0.627 ± 0.27 | -0.134 ± 0.24
5 | GGGAAGCAAUAUUACGCACU | -1.78 ± 0.21 | -1.94 ± 0.2
6 | GGGAAGCAAUAUUACGCCAU | -3.31 ± 0.25 | -0.83 ± 0.25
7 | GGGAAGCAAUAUUACGCCUA | -0.134 ± 0.2 | -0.887 ± 0.28
8 | GGGAAGCAAUAUUACGCGGG | -1.49 ± 0.23 | -1.8 ± 0.25
9 | GGGAAGCAAUAUUACGCUCG | -0.703 ± 0.27 | -1.03 ± 0.18
10 | GGGAAGCAAUAUUACGGAAU | – | -1.67 ± 0.42
11 | GGGAAGCAAUAUUACGGGAC | -2.61 ± 0.21 | -3.45 ± 0.21
12 | GGGAAGCAAUAUUACGUUUA | -2.23 ± 0.22 | -1.51 ± 0.16
13 | GGGCAGCAAUAUUACGAAGA | -2.31 ± 0.21 | -0.958 ± 0.16
14 | GGGCAGCAAUAUUACGACAG | -2.72 ± 0.39 | -0.948 ± 0.32
15 | GGGCAGCAAUAUUACGACGG | -3.78 ± 0.35 | -1.4 ± 0.27
16 | GGGCAGCAAUAUUACGAUGG | -3.22 ± 0.35 | –
17 | GGGCAGCAAUAUUACGCAUU | -0.0216 ± 0.078 | -0.129 ± 0.11
18 | GGGCAGCAAUAUUACGCGGC | – | -1.26 ± 0.38
19 | GGGCAGCAAUAUUACGCUCG | -0.812 ± 0.11 | -1.24 ± 0.14
20 | GGGCAGCAAUAUUACGGACU | -0.562 ± 0.07 | -0.255 ± 0.091
21 | GGGCAGCAAUAUUACGGCAU | 0.216 ± 0.12 | -0.928 ± 0.12

Row | Sequence | self-splicing fitness (ln) (30 °C) | self-splicing fitness (ln) (37 °C)
22 | GGGCAGCAAUAUUACGGGGC | -0.887 ± 0.22 | -1.9 ± 0.42
23 | GGGCAGCAAUAUUACGGGUA | – | -2.55 ± 0.35
24 | GGGCAGCAAUAUUACGUAAA | -0.819 ± 0.09 | -0.375 ± 0.11
25 | GGGCAGCAAUAUUACGUAGA | -1.53 ± 0.063 | -0.244 ± 0.083
26 | GGGCAGCAAUAUUACGUGCC | – | -0.519 ± 0.48
27 | GGGCAGCAAUAUUACGUGUG | -2.34 ± 0.14 | -1.26 ± 0.16
28 | GGGCAGCAAUAUUACGUUGA | -1.3 ± 0.081 | -0.64 ± 0.098
29 | GGGCAGCAAUAUUACGUUUG | -1.17 ± 0.098 | -0.133 ± 0.11
30 | GGGGAGCAAUAUUACGAAAC | -3.15 ± 0.42 | -0.654 ± 0.3
31 | GGGGAGCAAUAUUACGAACU | -2.75 ± 0.31 | -1.76 ± 0.27
32 | GGGGAGCAAUAUUACGAUCG | -1.44 ± 0.2 | -0.888 ± 0.3
33 | GGGGAGCAAUAUUACGAUGA | -2.02 ± 0.3 | -2.57 ± 0.37
34 | GGGGAGCAAUAUUACGAUGG | -2.44 ± 0.45 | -2.67 ± 0.44
35 | GGGGAGCAAUAUUACGCACG | -1.89 ± 0.17 | -1.44 ± 0.24
36 | GGGGAGCAAUAUUACGCCGG | – | -0.928 ± 0.42
37 | GGGGAGCAAUAUUACGCGGU | -1.99 ± 0.27 | –
38 | GGGGAGCAAUAUUACGGACA | – | -1.12 ± 0.2
39 | GGGGAGCAAUAUUACGUAAG | -2.56 ± 0.21 | -1.01 ± 0.24
40 | GGGGAGCAAUAUUACGUAAU | -4.07 ± 0.47 | -0.557 ± 0.19
41 | GGGGAGCAAUAUUACGUAGU | – | -1.53 ± 0.37
42 | GGGGAGCAAUAUUACGUCCU | -3.89 ± 0.4 | –

Row | Sequence | self-splicing fitness (ln) (30 °C) | self-splicing fitness (ln) (37 °C)
43 | GGGUAGCAAUAUUACGAAAA | -0.788 ± 0.35 | –
44 | GGGUAGCAAUAUUACGAACC | -2.05 ± 0.39 | –
45 | GGGUAGCAAUAUUACGAACG | -0.91 ± 0.08 | -0.292 ± 0.1
46 | GGGUAGCAAUAUUACGAGCG | -1.3 ± 0.12 | -0.426 ± 0.12
47 | GGGUAGCAAUAUUACGAGGA | -2.14 ± 0.22 | -2.74 ± 0.3
48 | GGGUAGCAAUAUUACGAUGA | -0.862 ± 0.13 | -0.927 ± 0.14
49 | GGGUAGCAAUAUUACGAUUU | -0.0881 ± 0.1 | -0.476 ± 0.099
50 | GGGUAGCAAUAUUACGCACG | -2.15 ± 0.26 | 0.541 ± 0.23
51 | GGGUAGCAAUAUUACGCAGG | – | -2.34 ± 0.25
52 | GGGUAGCAAUAUUACGCCGG | -4.18 ± 0.39 | -2.03 ± 0.24
53 | GGGUAGCAAUAUUACGCCUA | 0.113 ± 0.12 | -0.00829 ± 0.14
54 | GGGUAGCAAUAUUACGCCUU | -1.56 ± 0.18 | -2.07 ± 0.21
55 | GGGUAGCAAUAUUACGCGCG | -0.435 ± 0.11 | 0.558 ± 0.15
56 | GGGUAGCAAUAUUACGCGUU | -0.304 ± 0.091 | -0.0887 ± 0.12
57 | GGGUAGCAAUAUUACGCUCU | -3.13 ± 0.34 | –
58 | GGGUAGCAAUAUUACGCUUG | -0.33 ± 0.1 | -0.241 ± 0.15
59 | GGGUAGCAAUAUUACGGAAA | -1.82 ± 0.34 | 0.517 ± 0.27
60 | GGGUAGCAAUAUUACGGAGC | -1.42 ± 0.14 | -0.425 ± 0.17
61 | GGGUAGCAAUAUUACGGUUU | -0.176 ± 0.068 | 0.138 ± 0.099
62 | GGGUAGCAAUAUUACGUAUA | -1.41 ± 0.14 | -0.205 ± 0.15
63 | GGGUAGCAAUAUUACGUCAA | -0.501 ± 0.13 | -0.61 ± 0.21

Row | Sequence | self-splicing fitness (ln) (30 °C) | self-splicing fitness (ln) (37 °C)
64 | GGGUAGCAAUAUUACGUCUC | -0.431 ± 0.28 | 0.223 ± 0.43
65 | GGGUAGCAAUAUUACGUGAC | -2.07 ± 0.17 | -2.27 ± 0.26
66 | GGGUAGCAAUAUUACGUUGU | -2.46 ± 0.19 | -1.14 ± 0.17
67 | GGGUAGCAAUAUUACGUUUG | -1.9 ± 0.14 | -1.35 ± 0.21
68 | GGUAAGCAAUAUUACGACCG | -1.05 ± 0.16 | 0.0485 ± 0.22
69 | GGUAAGCAAUAUUACGACGU | 0.151 ± 0.1 | 0.677 ± 0.13
70 | GGUAAGCAAUAUUACGACUU | -0.311 ± 0.15 | 0.0617 ± 0.18
71 | GGUAAGCAAUAUUACGAGCC | – | -2.76 ± 0.34
72 | GGUAAGCAAUAUUACGAUCC | – | -1.74 ± 0.42
73 | GGUAAGCAAUAUUACGAUCU | -0.636 ± 0.1 | 1.04 ± 0.13
74 | GGUAAGCAAUAUUACGAUUU | -0.236 ± 0.1 | -0.0101 ± 0.14
75 | GGUAAGCAAUAUUACGCACA | -0.755 ± 0.12 | 0.101 ± 0.15
76 | GGUAAGCAAUAUUACGCCGA | -2.95 ± 0.43 | -0.926 ± 0.25
77 | GGUAAGCAAUAUUACGCGUA | -0.32 ± 0.21 | -0.425 ± 0.15
78 | GGUAAGCAAUAUUACGCUGU | -3.25 ± 0.29 | -1.65 ± 0.23
79 | GGUAAGCAAUAUUACGGAUA | -3.17 ± 0.25 | -1.69 ± 0.13
80 | GGUAAGCAAUAUUACGGCAU | -0.173 ± 0.078 | 0.827 ± 0.11
81 | GGUAAGCAAUAUUACGGCGG | -2.55 ± 0.24 | -0.84 ± 0.18
